Experimental data: the supplement of paper PMC9170038

Assays:
[1] = tested on: K4 kissing-loop RNA reporter; experiment: apparent KD of K4 kissing-loop reporter; higher = weaker reporter binding; conditions: Eterna round: R107;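 note: bound reporter read as fluorescence of individual clusters on recovered sequencing chips by microscopy, with normalized cluster intensities fitted with a binding model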
Method: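 RNA-MaP round R107: designed RNA switches with theophylline, tryptophan, arginine or FMN aptamers are transcribed on-chip within common flanks. They are titrated with a labelled K4 kissing-loop RNA reporter in RNA-MaP buffer (100 mM Tris pH 7.5, 80 mM KCl, 4 mM MgCl2), without ligand or with the indicated ligand. Median apparent KD per design.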

MS2 coat protein = experiment: apparent KD of MS2 coat protein; designed switch direction (-1 OFF switch, 1 ON switch): -1; higher = weaker reporter binding
How it was run: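 Designed RNA switches with common flanks were made on Illumina chips by stalled E. coli RNA polymerase. Titration with SNAP-549-labelled MS2 coat protein doubled from 0.7 or 1.5 nM up to 3 µM. Apparent KD is each design's median over clusters after curve-fitting normalised fluorescence.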

[2] = input ligand: theophylline 20 uM
[3] = input ligand: tryptophan 2.4 mM
[4] = Eterna round: R95, input ligand: microRNA oligo, concentration not stated
[5] = Eterna round: R95, input ligand: FMN 200 uM
[6] = Eterna round: R95, input ligand: none
[7] = input ligand: microRNA oligo, concentration not stated

| Sequence | apparent KD of K4 kissing-loop reporter ([1]; input ligand: FMN 200 uM) [nM] | apparent KD of K4 kissing-loop reporter ([1]; input ligand: arginine 13.2 mM) [nM] | apparent KD of K4 kissing-loop reporter ([1]; input ligand: none) [nM] | apparent KD of K4 kissing-loop reporter [1, 2] [nM] | apparent KD of K4 kissing-loop reporter [1, 3] [nM] | apparent KD of MS2 coat protein (MS2 coat protein; [4]) [nM] | apparent KD of MS2 coat protein (MS2 coat protein; [5]) [nM] | apparent KD of MS2 coat protein (MS2 coat protein; [6]) [nM] | apparent KD of MS2 coat protein (MS2 coat protein; input ligand: FMN 200 uM) [nM] | apparent KD of MS2 coat protein (MS2 coat protein; input ligand: none) [nM] | apparent KD of MS2 coat protein (MS2 coat protein; [7]) [nM] |
| --- | --- | --- | --- | --- | --- | --- | --- | --- | --- | --- | --- |
| AAGUCUCGUUAAUUCGAGGUUACGAUCGAUACCAGUAGCGAGAGGUACCCUUGGCAGCGAAGUGAGUGAUGUUCAUGAAAGAAGA [KL-XTheoA12] | 78.5 | 119 | 92.7 | 131 | 78 |  |  |  |  |  |  |
| GCCGUACGCAUGGAUACCAGAGAUGUUAGUCUCGAUGCCAGUGAUGUUGGCUAUAGCAUACUCCCUUGGCAGCCAUGCGUACGGC | 132 | 113 | 128 | 113 | 107 |  |  |  |  |  |  |
| UUAUAUUUCAGUGAUGUUGAAAAUAUAACAGAGGAUAUGCGUUUAAGCAGAAGGCUGAAAUACUAUACUUUAAUCUAUUAAAUUU [JR_Nu_SSFMNA_Sub027] | 195 | 356 | 350 | 353 | 323 |  |  |  |  |  |  |
| UGACAUUGCUCAGAUACCAGACCUGAGGAUCACCCGGGUGCCAAACGUACAAUAAUAAAGGUCCCUUGGCAGCUGAGCAAUGUCU [TheoBX 14] | 56.2 | 39.7 | 103 | 68.4 | 83.9 |  |  |  |  |  |  |
| GCCGUAGAUGGAAGGAGCGAGGUAGACUGUUGAAGUGAUGUUUCAACUCAUUAAGCCCAACCUCAGGUAGGUCGCCAUCUACGGC | 133 | 110 | 115 | 118 | 115 |  |  |  |  |  |  |
| AAAUUUAAUAUAUUUAAUUAAUUAUGUGAUACCAGACAUUUAUAAGUCCCUUGGCAGCACUUUGCAGUGAUGUUGCUUAUAAUAA [JR_SSTheophyA_Sub014] | 88.8 | 97.1 | 91.4 | 192 | 83.8 |  |  |  |  |  |  |
| AGACUACCACACUGUCAAUAGACAGUGGACUAGGAUAUGCUGAUAAGCAGAAGGAGUGAUGUUCCUUGGUAGUCAAUAAAAUAAU [FmnAX 13 G28+U67] | 308 | 269 | 253 | 335 | 265 |  |  |  |  |  |  |
| CUCGUGGGUUUGAGAGGGCUUGUGGGAAGUGAGGAUAUUUAGGGAGAAAGAAGGCACUAUAGAAUAUAGUGAUGUUAUGUAAGGG [SSFMNA.O] | 466 | 954 | 492 | 180 | 348 |  |  |  |  |  |  |
| CUGGGUUGACGAAAAGUCAACAAAUGAGAAGGAGCGCACGAAAGUGCAGGUAGGUCGCUCAAUCCAGUGAUGUUGGGUCAUCCAG [#SwitchBubble 13 #K4Late] | 856 | 612 | 993 | 951 | 731 |  |  |  |  |  |  |
| AGCGAUGUUUUCUCUAAGAGUGAUGUUUUUCGAGGACCGGUACGGCCGCCACUCGAAUAAAGUGUGCGGUAGUGAGCUGUUGACA [#18 K4 Tryptophan A Exclusion] | 710 | 550 | 747 | 580 | 718 |  |  |  |  |  |  |
| AGGAGCUGUCGACAAAAGUCGACAUAAACCAAGGAUAUGACGAAAGUCAGAAGGUGGUCAUAAGACCAGUGAUGUUGGUAGCUCC [FmnA 10 #SwitchBubble #K4Late] | 952 | 259 | 466 | 488 | 338 |  |  |  |  |  |  |
| AUCGUUGUCUGAGGAUAUCGGUUAACUGUAGUGAUGUUACAGAAAAUUCAUAUAAUAUUUUCUAUUCGAGAAGGCAGACUACGUA [JR_ExcFMNB_Sub018] | 205 | 157 | 167 | 178 | 177 |  |  |  |  |  |  |
| UGGCCUUAAAUUCUAGGAUUAGCGACGUACAAGGAUAUUCGUCAUCGAAGAAGGUGUAGCUAGGAGAGUGAUGUUUUCCAUCGCC [theeternabot_sameState_KL_FMN_A_15] | 640 | 449 | 549 | 576 | 504 |  |  |  |  |  |  |
| GCGAGUUUGCAAGGAUAUCGACCGUCGUACGACCAGUGAUGUUGGGAGUACUUUCAAAAUCGAUUUCGAGAAGGUGCUGGCAUCA [theeternabot_sameState_KL_FMN_B_12] | 271 | 212 | 250 | 248 | 234 |  |  |  |  |  |  |
| GGUCCGGGCUCGGCCGCCACUCCCUCCUGCCGCAAGGUGGGAUACCGAGUGAUGUUCGGUUGGAGGAGGACCGGGAGCCCGGACC [#2 Exclusion - Tryptophan B Attempt #14 (HarryS)] | 115 | 124 | 121 | 133 | 118 |  |  |  |  |  |  |
| UAUUGUACAGGGAAAUUGAUAAUAGACUUACGAGGACCGGUACGGCCGCCACUCGAUAGUCGAGUGAUGUUCGAAUGCUAUUGAU [Attempt 1] | 218 | 210 | 211 | 314 | 132 |  |  |  |  |  |  |
| AUCCGAGAAUAUGAUACCAGCUGAGUGUAUCAAGACCGUAUCUCCCGUGCUAGUGAUGUUAGCCCUUGGCAGCAUAUGAAAGCGG [theeternabot_exclusion_KL_Theo_B_15] | 635 | 518 | 467 | 517 | 570 |  |  |  |  |  |  |
| GCCGUACGCAUGGAUACCAGCAAUUAUGCUCGUGAUCUAGUGAUGUUAGUGGCGAAAGUUUGCCCUUGGCAGCCAUGCGUACGGC | 224 | 172 | 244 | 134 | 182 |  |  |  |  |  |  |

| Sequence | apparent KD of K4 kissing-loop reporter ([1]; input ligand: FMN 200 uM) [nM] | apparent KD of K4 kissing-loop reporter ([1]; input ligand: arginine 13.2 mM) [nM] | apparent KD of K4 kissing-loop reporter ([1]; input ligand: none) [nM] | apparent KD of K4 kissing-loop reporter [1, 2] [nM] | apparent KD of K4 kissing-loop reporter [1, 3] [nM] | apparent KD of MS2 coat protein (MS2 coat protein; [4]) [nM] | apparent KD of MS2 coat protein (MS2 coat protein; [5]) [nM] | apparent KD of MS2 coat protein (MS2 coat protein; [6]) [nM] | apparent KD of MS2 coat protein (MS2 coat protein; input ligand: FMN 200 uM) [nM] | apparent KD of MS2 coat protein (MS2 coat protein; input ligand: none) [nM] | apparent KD of MS2 coat protein (MS2 coat protein; [7]) [nM] |
| --- | --- | --- | --- | --- | --- | --- | --- | --- | --- | --- | --- |
| UUACGCGGCAUAGAUACCAGCAAUGCAGGAUAGGUCAAGAGUGAUGUUCUGAUACUUGGGUGCCCUUGGCAGCUAGACGAUAACA [theeternabot_sameState_KL_Theo_B_46] | 479 | 449 | 521 | 412 | 308 |  |  |  |  |  |  |
| AAAUUUUCGAGUGAUGUUCGAAUAAUUUCAGAGGAUAUGCUUAAAAGCAGAAGGCUGUAUUACUAUUUGUUAUUAAAUUUUAUAA [JR_ExcFMNA_Sub001] | 106 | 110 | 96.7 | 105 | 86.2 |  |  |  |  |  |  |
| GGUAGCAUGGCGGCCGCCACUCGGACGACAUAGCACAUGUCGACCAGUGAUGUUGGUUCAAACACGAGGACCGGGCCAUGCUACC | 724 | 715 | 798 | 629 | 135 |  |  |  |  |  |  |
| GAUCUGACAGGAUAUACAUGAGGAUCACCCAUGUACGAGCUAGCGAAAGCUAGCUCAGGUAGAAGGGUCAGAUC [Ex3 dot plot directed v5] (puzzle: Exclusion 3) |  |  |  |  |  | 11.6 |  |  |  |  |  |
| GCCGAUUAAGUGAGGAUAUACCUAUGGAUACAUAGGUAGAAGGUACAUGAGGAUCACCCAUGUUCCUCAACGGC [Fiskers BMX 4 - 9] (puzzle: Brourd's mod of Exclusion 4) |  |  |  |  |  | 8.93 |  |  |  |  |  |
| GGUUGGCGAGGAUAUACAUGAGGAUCACCCAUGUGAGAGAAAGAAGUGAGGAAGAAAAGUAGAAGGCGUUGACG [salish99_ex3_r3_053] (puzzle: Exclusion 3) |  |  |  |  |  | 55.4 | 50.6 | 71.7 |  |  |  |
| GAUUAGUGAGGAUAUGGUAAAGAUAAGAUGAUGAAAGAACUCCAGAAGGCACAUGAGGAUCACCCAUGUAGUAG [Mat - Exclusion 4 - Mod of JL - D21] (puzzle: Exclusion 4) |  |  |  |  |  | 20.4 | 17.1 | 20.1 |  |  |  |
| UGCCGAAGAGGAUAUACAUUGAAUUUGAUUCAUGUAAAACUACAUGAGGAUCACCCAUGUAGAAGGCUUUGGCU [Mat - Exclusion 2 - JL Mod - D61] (Eterna round: R97, puzzle: Exclusion 2) |  |  |  |  |  |  |  |  | 34.2 | 15.3 |  |
| UUUGUAUAUGAAGGAUAUACUUAACAUGAGGAUCACCCAUGUGGUGUUGUGAGUGAGUGAGUUUAGUAGAAGGUCAAUUCUUUU [JMF's solution 92] (Eterna round: R96, puzzle: Exclusion NG 2) |  |  |  |  |  |  |  |  | 651 | 434 | 417 |
| CUUGUUUAUGUAGGAUAUGCCUGGCGUGCCUUUGCAGAAGGACAUGAGGAUCACCCAUGUAACAUGAGGCUUACCCUUGUCGCC [salish99_ExNG1_r04_119] (Eterna round: R96, puzzle: Exclusion NG 1) |  |  |  |  |  |  |  |  | 80.6 | 68.9 | 56.1 |
| GAUUAUGCGAGCUUUAGGGACAUGAGGAUCACCCAUGUUCGUCUUAUUAAUCUAGGUACGCUGACAUACCUAAAUCU [JMF 98] (puzzle: Sensor v3, turn-off variant 1) |  |  |  |  |  | 30 | 21.6 | 20.6 |  |  |  |
| AGCUGUGGCCGAGGAUAUCCACAUGAGGAUCACCCAUGUCGAUACGCCGUUAAAGGCGAUAUAAGGGAGAAGGCGGUCUCAGCA [Eli eng2 - 052] (Eterna round: R96, puzzle: Exclusion NG 2) |  |  |  |  |  |  |  |  | 7.35 | 10.2 | 6.69 |
| UGUUGGCGAGGAUAUACAUGAGGAUCACCCAUGUGAGAGAAAAAAGUGAGGAAGAAAAGUAGAAGGCGCUGACA [salish99_ex3_r3_045] (puzzle: Exclusion 3) |  |  |  |  |  | 42.5 | 371 | 48.4 |  |  |  |
| AAUAAAGGAGGAUAUACAUGAGGAUCACCCAUGUGAAUAAAAUAAAUAAAAUGAUAAAGUAGAAGGCCUAAUAA [JMF's solution 3] (puzzle: Exclusion 3) |  |  |  |  |  | 33.3 | 33.5 | 49.7 |  |  |  |
| AAGAUACAUGAGGAUCACCCAUGUGAGGAUAUGAGUCAGUCACGGUGACGUGGCUGACUCAGAAGGCACAAAGG [JL-ex1-4.36 salish99 mod] (Eterna round: R97, puzzle: Exclusion 1) |  |  |  |  |  |  |  |  | 176 | 110 |  |
| ACCUCACAUGAGGAUCACCCAUGUCAGGAUAUGUACCUGGCCAAGACAAAAGCCAGAAGCAGAAGGGACUGCGG [Enrionerdi] (puzzle: Exclusion 1) |  |  |  |  |  | 129 | 72.5 | 93.6 |  |  |  |
| CGGAGCGUAGGUAGGUUCAACAUGAGGAUCACCCAUGUCUCACAAGCUUUUUGCUCAUCUUAUUGUACCUUGGUGCU [Sensor v3, turn-off variant 1 (MOD of JL )] (puzzle: Sensor v3, turn-off variant 1) |  |  |  |  |  | 37.3 | 117 | 144 |  |  |  |
| UAUUUGUCAGGAUAUGAGUCGUAGAACAAUAGUACUACGUCUCAGAAGGGACAUGAGGAUCACCCAUGUGCCUC [Fiskers Ex 4 Super Stable 44 mod 29] (Eterna round: R96, puzzle: Exclusion 4) |  |  |  |  |  |  |  |  | 276 | 28.9 | 24.3 |
